Experimental data reported in publication doi:10.1101/2020.01.04.893909 (bioRxiv, 2020).

Target: the molecule itself
Assay: SEC

B1: S. cerevisiae homologue of GAP (Rna1), recombinant (natural protein, UniProt P11745 1-407, looked up)
chain: MATLHFVPQHEEEQVYSISGKALKLTTSDDIKPYLEELAALKTCTKLDLSGNTIGTEASEALAKCIAENTQVRESLVEVNFADLYTSRLVDEVVDSLKFLLPVLLKCPHLEIVNLSDNAFGLRTIELLEDYIAHAVNIKHLILSNNGMGPFAGERIGKALFHLAQNKKAASKPFLETFICGRNRLENGSAVYLALGLKSHSEGLKVVKLYQNGIRPKGVATLIHYGLQYLKNLEILDLQDNTFTKHASLILAKALPTWKDSLFELNLNDCLLKTAGSDEVFKVFTEVKFPNLHVLKFEYNEMAQETIEVSFLPAMEKGNLPELEKLEINGNRLDEDSDALDLLQSKFDDLEVDDFEEVDSEDEEGEDEEDEDEDEKLEEIETERLEKELLEVQVDDLAERLAETEIK
B1: binds.
